Biological target: PA specific receptor on A549 human lung epithelial cells

## EGFP-PA32 fusion protein
  fold signal over non-specific EGFP binding: 4 fold

Reference: patent publication US20040014707A1
